Measured values as given in US12460006B2, “Antibodies against integrin alpha 11 beta 1” (Momenta Pharmaceuticals, Inc., priority 2019, dated 2025).
Entries after “also recorded” stand apart in the source; their conditions may differ.

Experiments:
[1] = biological target: mouse α11β1 (Mus musculus, UniProt P61622); assay: ELISA binding to recombinant mouse α11β1; details: for Murine α11β1 ELISA: binding Yes/No
Experimental: (§1) 0.25 μg/mL of target antigen (recombinant human or mouse α11β1) was plated in a 96-well plate over night at 4° C. Plates were washed (PBS with 0.1% Tween-20), blocked (PBS with 2% BSA and 0.05% Tween-20) for 1 hour at room temperature and incubated with a range of antibody concentrations for 1 hour at room temperature. Subsequently, plates were washed and incubated with biotinylated anti-rabbit/mouse/human IgG in a 1:1000 dilution buffer and incubated for 1 hour at room temperature. After washing the plates, Streptavidin HRP was added at 1:200 in dilution buffer and incubated for 1 hour at room temperature. Ultra TMB ELISA substrate solution was added and the plates incubated for 5 minutes on a plate shaker. The reaction was stopped by adding stop solution to each well and plates were read at 450 nm.

[2] = tested on: CHO-K1 cells expressing human α11; assay: Cell adhesion inhibition (xCelligence), type I collagen; format: cell-based; details: for inhibition of cell adhesion to type I collagen: CHO-K1 hu α11 cells; for Inhibition of CHO-K1 adhesion to collagen: Yes/No
Experimental: 0.6×10^6 cells/mL were incubated with each antibody at a range of concentrations for 20 minutes at 37° C. E-Plate VIEW 96 PET plate coated with 100 ng/mL type I collagen or PBS overnight at room temperature was blocked in 3% BSA for 1 house at room temperature. After washing the plate with PBS, cell and antibody mixture was added to the wells and the plate was places into an xCelligence machine. Cell adhesion was recorded over 6 hours. The time point of maximum cell adhesion was used for comparison relative to control.
A CHO-K1 hu α11 cell line was used to assess the ability of mAbs to block α11β1-mediated binding to type I collagen. […] In the “Untreated” condition, cells were plated on type I collagen but no antibody was added and in the “Uncoated” condition, cells were seeded onto BSA-coated wells containing no type I collagen. Statistics were performed using one-way ANOVA followed by Dunnett's multiple comparisons test. […] Therefore, it is possible that these mAbs bind on an α11β1 domain that keeps the integrin in a low or intermediate affinity state. […] Nine human mAbs were also tested for their ability to inhibit the binding of human CHO-α11 cells to type I collagen.

[3] = tested on: Human Pulmonary Fibroblasts; assay: Fibroblast-to-Myofibroblasts Transition (FMT), αSMA expression; format: cell-based; details: for inhibition of αSMA expression / FMT: TGFβ-induced FMT; for Inhibition of FMT: Yes/No
Experimental: Human Pulmonary Fibroblasts (ScienCell) were cultured in complete Fibroblast Growth Medium (ScienCell) until 80% confluent. Cells were washed and harvested using Accutase. Cells were seeded onto tissue culture-treated 96 well plates at 20,000 cells/well in complete Fibroblast Growth Medium. After 24 hours, cells were washed and starved in serum reduced medium for an additional 24 hours. After starvation, cells were treated with TGFβ-1 (R&D Systems) with or without anti-α11 antibodies. A polyclonal rabbit anti-human α11 antibody was used as a positive control. Appropriate IgG isotype controls were also included. After 48 hours, cells were harvested, fixed, permeabilized and stained with AlexaFluor488 Labeled Anti-αSMA (α-smooth muscle actin) (Invitrogen). Cells were acquired on a FACS Verse (Benton Dickson) to determine expression levels of αSMA. Data were analyzed by gating on single cells and determining the geometric Mean Fluorescence Intensity (gMFI) in the FITC channel for each sample. gMFI for each sample was normalized to the untreated control and presented as % inhibition.
In addition to the binding abilities described above, it is important for an anti-α11β1 antibody to inhibit the fibroblast-to-myofibroblast transition (FMT). It is now appreciated that myofibroblasts are a heterogeneous cell population, existing in different activation states, with the main function of producing and contracting collagen extracellular matrix (ECM). FMT is a multi-step event that is controlled by a changing mechanical environment in tissues undergoing repair. TGFβ is one of the potent factors that potentiates this process and alpha smooth muscle actin (αSMA) is one of the main markers that becomes overexpressed when fibroblasts are undergoing the transition to becoming myofibroblasts. The presence of αSMA enhances fibroblast contraction and guides myofibroblast activation through an intracellular feedback loop. Because αSMA is the main molecular marker of myofibroblasts, the ability of the novel anti-α11β1 mAbs to inhibit αSMA expression in TGFβ-induced FMT was tested.

[4] = biological target: human α11β1 (Homo sapiens, UniProt Q9UKX5); assay: ELISA binding to recombinant human α11β1; details: binding Yes/No
Sequence of human α11β1 (Q9UKX5 23-1141 limits assumed): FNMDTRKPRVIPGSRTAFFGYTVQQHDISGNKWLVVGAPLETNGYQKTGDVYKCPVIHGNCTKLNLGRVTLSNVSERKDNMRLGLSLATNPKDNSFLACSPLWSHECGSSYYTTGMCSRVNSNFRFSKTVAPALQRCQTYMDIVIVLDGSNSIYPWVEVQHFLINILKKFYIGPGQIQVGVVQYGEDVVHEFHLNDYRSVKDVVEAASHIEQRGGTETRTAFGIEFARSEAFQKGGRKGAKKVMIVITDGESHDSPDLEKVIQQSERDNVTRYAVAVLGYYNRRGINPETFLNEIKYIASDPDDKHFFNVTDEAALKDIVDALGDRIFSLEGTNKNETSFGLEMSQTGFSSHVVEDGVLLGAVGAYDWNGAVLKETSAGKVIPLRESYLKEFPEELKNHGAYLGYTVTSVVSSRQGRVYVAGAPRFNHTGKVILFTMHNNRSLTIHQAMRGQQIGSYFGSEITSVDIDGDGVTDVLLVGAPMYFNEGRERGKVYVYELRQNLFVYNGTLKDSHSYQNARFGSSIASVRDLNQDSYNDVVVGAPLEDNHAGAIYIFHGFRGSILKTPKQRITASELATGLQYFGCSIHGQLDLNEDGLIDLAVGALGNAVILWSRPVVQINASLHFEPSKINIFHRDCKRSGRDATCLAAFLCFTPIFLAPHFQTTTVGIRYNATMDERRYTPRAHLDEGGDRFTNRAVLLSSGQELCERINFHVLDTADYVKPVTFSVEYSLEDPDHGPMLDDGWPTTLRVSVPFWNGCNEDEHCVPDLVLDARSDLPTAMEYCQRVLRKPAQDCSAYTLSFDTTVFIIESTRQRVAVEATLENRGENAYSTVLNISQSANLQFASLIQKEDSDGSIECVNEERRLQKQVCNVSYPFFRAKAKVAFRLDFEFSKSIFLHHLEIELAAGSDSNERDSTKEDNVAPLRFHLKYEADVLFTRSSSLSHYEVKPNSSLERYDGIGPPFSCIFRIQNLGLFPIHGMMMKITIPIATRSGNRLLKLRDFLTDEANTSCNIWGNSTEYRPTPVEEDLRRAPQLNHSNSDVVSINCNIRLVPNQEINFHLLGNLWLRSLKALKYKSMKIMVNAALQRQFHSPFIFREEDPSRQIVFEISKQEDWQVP
Sequence of human α11β1 (P05556 21-728 partner limits assumed): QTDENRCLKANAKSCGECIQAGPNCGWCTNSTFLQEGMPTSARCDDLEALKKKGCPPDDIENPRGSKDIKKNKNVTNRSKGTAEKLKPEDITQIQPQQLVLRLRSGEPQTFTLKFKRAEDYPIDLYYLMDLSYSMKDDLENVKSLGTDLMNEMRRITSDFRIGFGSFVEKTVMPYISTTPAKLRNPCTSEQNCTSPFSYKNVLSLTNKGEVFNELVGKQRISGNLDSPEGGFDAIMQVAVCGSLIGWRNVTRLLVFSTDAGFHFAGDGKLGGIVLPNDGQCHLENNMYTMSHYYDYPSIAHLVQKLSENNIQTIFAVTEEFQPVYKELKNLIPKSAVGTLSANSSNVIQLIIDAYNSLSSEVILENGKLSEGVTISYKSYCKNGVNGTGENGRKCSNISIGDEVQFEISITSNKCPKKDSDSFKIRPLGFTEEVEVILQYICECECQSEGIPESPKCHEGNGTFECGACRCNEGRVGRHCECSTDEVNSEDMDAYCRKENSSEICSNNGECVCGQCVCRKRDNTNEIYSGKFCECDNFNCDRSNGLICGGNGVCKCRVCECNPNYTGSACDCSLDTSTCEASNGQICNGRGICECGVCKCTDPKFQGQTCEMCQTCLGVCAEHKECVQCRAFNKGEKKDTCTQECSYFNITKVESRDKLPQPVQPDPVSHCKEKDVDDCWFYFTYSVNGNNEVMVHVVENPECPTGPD
Experimental: as §1

[5] = tested on: α1β1, α2β1 and/or α10β1; assay: Counter-screen for cross-reactivity to other collagen receptors; format: binding, human; details: cross-reactivity to α1β1, α2β1, α10β1
Experimental: Wistar rats were immunized with recombinant human α11β1 protein. An enzyme-linked immunosorbent assay (ELISA) was used to test an immune response against target human and mouse proteins. Subsequently, cell fusion (by electro fusion) was performed with animals that produced a good immune response. All fused cells were plated in a 96-well plate and supernatants were screened by ELISA against soluble human and mouse α11β1. Positive clones were counter-screened against human α1β1, α2β1 and α10β1. […] Purified antibodies were then generated from the selected clones and heavy chain and light chain variable domain sequences were obtained from each purified antibody.
10 mice from 5 different strains were immunized with an appropriate mixture of human α11β1, mouse α11β1 and tolerance breaking protein. Plasma titers were evaluated by ELISA against a mixture of human and mouse α11β1. Popliteal, inguinal, and iliac lymph nodes were collected. ELISA-positive anti-human/mouse α11β1 hybridomas were expanded and subjected to a secondary screen against human and mouse α11β1, control HIS protein, and a counter-screen was performed against human […], α2β1 and α10β1. Supernatant IgG concentration was sufficient for functional screening. Selected hybridomas satisfying all the criteria were cloned and clonal hybridomas were confirmed by ELISA against human and mouse α11β1 and subsequently scaled-up and IgGs were purified. Heavy and light chain variable regions of selected hybridomas were then sequenced.
α11β1 belongs to a family of collagen receptors and has a relatively high homology to them. Therefore, the novel antibodies of this invention were counter-screened against α1β1, α2β1 and/or α10β1. Table 2 includes results of cross-reactivity to the other receptors.

Sequence of mouse α11β1 (P61622 23-1141 limits assumed): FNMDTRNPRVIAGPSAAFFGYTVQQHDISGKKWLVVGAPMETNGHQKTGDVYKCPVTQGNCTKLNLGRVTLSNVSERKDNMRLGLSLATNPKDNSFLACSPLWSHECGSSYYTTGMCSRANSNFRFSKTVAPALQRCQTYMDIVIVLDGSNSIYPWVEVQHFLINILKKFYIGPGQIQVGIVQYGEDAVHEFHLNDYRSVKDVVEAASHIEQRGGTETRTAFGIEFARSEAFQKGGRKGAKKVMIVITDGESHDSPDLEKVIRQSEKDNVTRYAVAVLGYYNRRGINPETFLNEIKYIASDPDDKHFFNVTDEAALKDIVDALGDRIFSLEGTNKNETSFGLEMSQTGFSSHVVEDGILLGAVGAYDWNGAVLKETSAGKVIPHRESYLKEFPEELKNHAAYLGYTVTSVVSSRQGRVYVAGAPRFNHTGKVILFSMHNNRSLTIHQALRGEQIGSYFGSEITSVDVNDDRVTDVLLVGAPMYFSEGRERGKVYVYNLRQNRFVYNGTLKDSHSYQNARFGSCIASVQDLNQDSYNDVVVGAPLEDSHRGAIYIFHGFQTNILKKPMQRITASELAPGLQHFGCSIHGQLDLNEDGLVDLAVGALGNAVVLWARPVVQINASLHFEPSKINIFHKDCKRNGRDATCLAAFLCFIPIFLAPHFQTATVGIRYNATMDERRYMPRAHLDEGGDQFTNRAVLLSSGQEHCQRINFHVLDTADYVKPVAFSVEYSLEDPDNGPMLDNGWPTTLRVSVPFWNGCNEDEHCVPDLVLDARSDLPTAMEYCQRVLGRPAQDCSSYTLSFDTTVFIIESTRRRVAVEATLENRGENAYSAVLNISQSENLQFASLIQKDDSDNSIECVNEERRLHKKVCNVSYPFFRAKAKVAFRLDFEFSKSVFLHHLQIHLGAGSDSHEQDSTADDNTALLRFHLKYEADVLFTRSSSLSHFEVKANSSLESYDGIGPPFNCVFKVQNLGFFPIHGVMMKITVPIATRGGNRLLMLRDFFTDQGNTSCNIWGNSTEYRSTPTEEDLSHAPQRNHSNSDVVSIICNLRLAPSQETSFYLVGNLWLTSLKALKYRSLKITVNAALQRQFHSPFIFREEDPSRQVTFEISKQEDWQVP
Sequence of mouse α11β1 (P09055 21-728 partner limits assumed): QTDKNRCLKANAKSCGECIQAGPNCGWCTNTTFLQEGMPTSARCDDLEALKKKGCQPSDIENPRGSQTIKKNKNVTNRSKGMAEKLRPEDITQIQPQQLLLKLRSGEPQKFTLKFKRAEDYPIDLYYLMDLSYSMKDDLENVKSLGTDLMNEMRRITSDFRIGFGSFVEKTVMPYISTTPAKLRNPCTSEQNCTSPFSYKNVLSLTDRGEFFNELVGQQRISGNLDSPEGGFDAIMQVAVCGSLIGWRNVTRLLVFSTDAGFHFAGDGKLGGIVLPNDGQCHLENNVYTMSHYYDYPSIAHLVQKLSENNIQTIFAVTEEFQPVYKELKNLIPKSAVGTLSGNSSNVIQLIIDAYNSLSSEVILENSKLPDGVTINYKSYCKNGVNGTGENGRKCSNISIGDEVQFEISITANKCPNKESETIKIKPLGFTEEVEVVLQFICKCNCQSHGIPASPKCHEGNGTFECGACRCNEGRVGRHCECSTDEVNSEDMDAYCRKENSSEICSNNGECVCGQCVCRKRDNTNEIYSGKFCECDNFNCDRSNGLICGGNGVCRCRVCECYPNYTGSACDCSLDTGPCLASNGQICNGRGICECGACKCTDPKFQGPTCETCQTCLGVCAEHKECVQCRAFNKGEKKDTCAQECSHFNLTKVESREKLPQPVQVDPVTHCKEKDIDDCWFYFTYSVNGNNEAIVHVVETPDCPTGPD

| Molecule | Murine α11β1 ELISA [1] | Human α11β1 ELISA [4] | Off Target [5] | binding to mouse α11β1 [1] | inhibition of cell adhesion to type I collagen [2] | Inhibition of CHO-K1 adhesion to collagen [2] | inhibition of αSMA expression / FMT [3] | Inhibition of FMT [3] |
| --- | --- | --- | --- | --- | --- | --- | --- | --- |
| 8-P20: mouse anti-α11β1 mAb; VH SEQ ID NO: 105, VL SEQ ID NO: 106 (antibody, V domains shown) VH: KVMLVESGGALVKPGGSLKLSCVASGFTFSNYAMSWVRQTPEKRLEWVATISSGGYYTYYPDSVKGRFTISRDNARNTLFLQMSSLRSEDTAMFYCAREDDYGRYSYTMDYWGQGTSVTVSS VL: DVVMTQTPLSLPVSLGDQVSISCRCSQSLVHSNGNTYLHWYLQKPGQSPQLLIYKISNRFSGVPDRFSGSGSGTDFTLKISRVEAEDLGVYFCSQSTHVPYTFGGGTELEIK | No | Yes | No | – | did not block cell adhesion | No | – | No |
| 8-J17: mouse anti-α11β1 mAb; VH SEQ ID NO: 113, VL SEQ ID NO: 114 (antibody, V domains shown) VH: QVQLQQSGAELAKPGASVKMSCKASGYTFTNYWMHWVKQRPGQGLEWIGYINPNNGYTEYNQRFKDKATLTADRSSTTAYMQLSSLTSEDSAVYYCARSDIITTDYWGQGTTLTVSS VL: DVVMTQTPLSLPVSLGDQASISCRSSQSLVYSNGNTYLHWYLQKPGQSPKLLIYKVSNRFSGVPDRFSGSGSGTDFTLKISRVEAEDLGVYFCSQSTHVPWTFGGGTKLEIK | No | Yes | Yes | – | did not block cell adhesion; also recorded: had effect on ligand binding | No | only inhibited FMT | Yes |
| 8-I14: mouse anti-α11β1 mAb; VH SEQ ID NO: 109, VL SEQ ID NO: 110 (antibody, V domains shown) VH: EVQLQQSGPELVKPGASVKKSCKASGYTFTDYYMHWVKQKPGQGLEWIGKIYPGSGNTHYNEKFKGKATLTADKSSSTAYMQLSSLTSEDSAVYFCATNYYGYRAMNYWGQGSSVTVSS VL: DIHLTQSPSSLSASLGERISLTCRASQDIYISLNWFQQKPDGTIKLLIYGTSSLDSGVPKRFSGSRSGSDYSLTISSLESEDFADYYCLQYASSPYTFGGGTKLEIK | Yes | Yes | No | – | – | No | only inhibited FMT | Yes |
| 8H8E9: rat anti-α11β1 mAb; VH SEQ ID NO: 149, VL SEQ ID NO: 150 (antibody, V domains shown) VH: MAVLVLLLCLVTFPSCALSQVQLKESGPGLVQPSQTLSLTCTVSGFSLTSNSVSWVRQAPGKGLEWMGAIWSGGSTDYNSALKSRLSISRDTSKSQVFLKMNSLQTEDTAIYFCTRSHWEPFDYWGQGVMVTVSS VL: MESQTQALISLLLWVYGTCGDIVMTQSPFSLAVSEGEMVTINCKSSQGLLSSGNQKNYLAWYQQRPGQSPKLLIYYASTRQSGVPDRFIGGGSGTDFTLTISDVQAEDLADYYCLQHYSYPPTFGSGTKLEIK | No | Yes | No | – | – | Yes | – | Yes |
| 6E5C11: rat anti-α11β1 mAb; VH SEQ ID NO: 151, VL SEQ ID NO: 152 (antibody, V domains shown) VH: MAVLVLLLCLVTFPSCALSQVQLRESGPGLVQPSQTLSLTCTVSGFSLTSNSVTWVRQPPGKGLEWMGAIWSDGSTDYNSTLKSRLSISRDTSKSQVFLKMSSLQTEDTAIYFCTRSHWEPFDYWGQGVMVTVSS VL: MESQTQALISLLLWVYGTCGDIVMTQSPLSLAVSEGETVTMNCKSSQSLFSSGNQKNYLAWYQQKPGQSPKLLIYYASTRQSGVPDRFIGSGSGTDFTLTISDVQTEDLADYYCLQHYNYPPTFGSGTKLEIK | No | Yes | No | – | – | No | – | Yes |

Second part, led by results:

| Murine α11β1 ELISA [1] | Human α11β1 ELISA [4] | Off Target [5] | binding to mouse α11β1 [1] | Molecule | inhibition of cell adhesion to type I collagen [2] | Inhibition of CHO-K1 adhesion to collagen [2] | inhibition of αSMA expression / FMT [3] | Inhibition of FMT [3] |
| --- | --- | --- | --- | --- | --- | --- | --- | --- |
| Yes | Yes | No | – | 9-G05: mouse anti-α11β1 mAb; VH SEQ ID NO: 103, VL SEQ ID NO: 104 (antibody, V domains shown) VH: EVQLQQSGPELVKPGASVKIPCKASGYTFPDYNMDWVKQSHGKSLEWIGYINPDNGGTIYNQKFKGKATLTVDKSSSTAYMELRSLTSEDTAVYYCARLDSSGYGYYAMDYWGQGTSVTVSS VL: DIVLTQSPASLAVSLGQRATISCRASESVDNYGISFMHWYQQKPGQPPKLLIYRASNLDSEIPARFSGSGSRTDFTLTIDPVETDDVATYYCQQSYKDPRTFGGGTKLEIK | significantly blocked cell adhesion; also recorded: decrease cell adhesion | Yes | FMT inhibitors | Yes |
| Yes | Yes | No | cross-reacts with mouse α11β1 | 79E3E3: rat anti-α11β1 mAb; VH SEQ ID NO: 145, VL SEQ ID NO: 146 (antibody, V domains shown) VH: MDWLWNLLFLMVVAQSAQAQIQLVQSGPEVKKPGESVKISCKASGYTFTDYAMNWVKQAPGNGLKWMGWINTQTGKPTYADDFKQRFVFSLETSARTTYLQINNLNIEDTATYFCTRLGTGNTKGFAYWGQGTLVTVSS VL: MESQTHVLISLLLCVSGTCGDILINQSPASLTVSAGERVTMSCKSSQSLLYSENNQDYLAWYQQKPGQFPKLLIYGASNRHTGVPDRFTGSGSGTDFTLTISSVQAEDLADYYCEQTYRYPFTFGSGTKLEIK | strongly inhibited cell adhesion | Yes | failed to decrease αSMA expression | No |
